{"source": "patent US20160046707A1", "about": "(EISAI R AND D MANAGEMENT, published 2016)", "binders": {"B1": {"name": "mouse anti-human CCL20 monoclonal antibody 36F7C10 (antibody, V domains shown)", "VH": "QVQLQQPGAELVKPGASVKMSCKASGYTFTNYWMHWVKQRPGQGLEWIGVIDPSDSYTTYNQKFKGKATLTVDTSSSTAYMQLSSLTSEDSAVYYCTRGNYGVDYAMDYWGQGTSVTVSS", "VL": "DIQMTQSPASLSASVGETVTITCGASENIYGALNWYQRKQGKSPQLLIYGATNLADGMSSRFSGSGSGRQYSLKISSLHPDDVATYYCQNVLITPYTFGGGTKLEIK", "notes": "Mouse hybridoma antibody; also called MouseMAb; parental mouse clone 36F7C10"}, "B2": {"name": "chimeric 36F7C10 antibody (36F7C10-hFc) (antibody, V domains shown)", "VH": "B1 VH", "VL": "B1 VL", "notes": "also called chimeric 36F710; Chimeric MAb"}, "B3": {"name": "humanized anti-human CCL20 antibody 36LK3/36HC2 (antibody, human IgG1, kappa, V domains shown)", "VH": "QVQLVQSGAEVKKPGASVKVSCKASGYTFTNYWMHWVRQAPGQGLEWMGVIDPSDSYTTYAQKFQGRVTMTVDTSTSTVYMELSSLRSEDTAVYYCARGNYGVDYAMDYWGQGTLVTVSS", "VL": "DIQMTQSPSSLSASVGDRVTITCGASENIYGALNWYQRKPGKAPKLLIYGATNLADGVPSRFSGSGSGRDYTLTISSLQPEDFATYYCQNVLITPYTFGQGTKLEIKR", "notes": "expressed in HEK293 cells; also called HC2/LK3; HC2LK3"}, "B4": {"name": "humanized anti-human CCL20 antibody 36LC3/36HC2 (antibody, human IgG1, kappa, V domains shown)", "VH": "B3 VH", "VL": "B3 VL with G24R, R38Q, D70Q, T72S, Q100G", "notes": "expressed in HEK293 cells; also called HC2/LC3; HC2LC3"}}, "note": "Residue numbers refer to the chain shown, from its start.", "data": [{"target": "T1, recombinant human XCL1 (human, UniProt P47992 23-114, limits assumed)", "T1 construct": "also called Ltn", "T1 sequence (looked up)": "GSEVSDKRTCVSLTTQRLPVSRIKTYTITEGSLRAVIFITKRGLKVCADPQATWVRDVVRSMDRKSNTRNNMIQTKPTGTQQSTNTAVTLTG", "test": "ELISA, plate-bound chemokine (1 ug/ml), antibody 10 ug/ml, OD450", "description": "(§1) The wells of a 96-well plate were coated with 1 μg/ml of the recombinant human chemokines in PBS (−). After overnight incubation at 4° C., the wells were blocked with 1× Block-Ace (Dainippon Sumitomo Pharma, UK-B80) for 1 hour at room temperature. After washing twice with 0.02% Tween 20/PBS (−), we added 50 μl of 10 μg/ml purified 36F7C10, chimeric 36F710, HC2/LK3, or HC2/LC3 in 0.02% Tween 20/PBS (−) to each well. The wells were incubated for 1 hour at room temperature and washed three times as described in Example 3. […] After washing five times, a TMBZ (3,3′,5,5′-tetramethylbenzidine) solution (1%, in N,N-Dimethylformamide) was added to the wells and incubated for 15-30 minutes. The reaction was stopped by adding an equal volume of a 2 M H₂SO₄ stopping solution, and the optical density was read at 450 nm by ARVO (PerkinElmer).", "values": [{"binder": "B1", "binding result": "no binding (tested: 10 ug/ml)"}, {"binder": "B2", "binding result": "no binding (tested: 10 ug/ml)"}, {"binder": "B3", "binding result": "no binding (tested: 10 ug/ml)"}, {"binder": "B4", "binding result": "no binding (tested: 10 ug/ml)"}]}, {"target": "T2, recombinant human CCL24 (human, UniProt O00175 27-119, limits assumed)", "T2 construct": "also called Eotaxin-2/MPIF-2", "T2 sequence (looked up)": "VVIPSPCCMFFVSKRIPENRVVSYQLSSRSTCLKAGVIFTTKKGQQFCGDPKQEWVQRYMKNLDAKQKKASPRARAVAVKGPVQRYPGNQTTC", "test": "ELISA, plate-bound chemokine (1 ug/ml), antibody 10 ug/ml, OD450", "description": "as §1", "values": [{"binder": "B1", "binding result": "no binding (tested: 10 ug/ml)"}, {"binder": "B2", "binding result": "no binding (tested: 10 ug/ml)"}, {"binder": "B3", "binding result": "no binding (tested: 10 ug/ml)"}, {"binder": "B4", "binding result": "no binding (tested: 10 ug/ml)"}]}, {"target": "T3, recombinant human CCL22 (human, UniProt O00626 25-93)", "T3 construct": "also called MDC", "T3 sequence (looked up)": "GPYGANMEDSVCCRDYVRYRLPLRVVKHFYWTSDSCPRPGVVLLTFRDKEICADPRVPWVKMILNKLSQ", "test": "ELISA, plate-bound chemokine (1 ug/ml), antibody 10 ug/ml, OD450", "description": "as §1", "values": [{"binder": "B1", "binding result": "no binding (tested: 10 ug/ml)"}, {"binder": "B2", "binding result": "no binding (tested: 10 ug/ml)"}, {"binder": "B3", "binding result": "no binding (tested: 10 ug/ml)"}, {"binder": "B4", "binding result": "no binding (tested: 10 ug/ml)"}]}, {"target": "T4, recombinant human CCL21 (human, UniProt O00585 24-134)", "T4 construct": "also called 6Ckine/SLC", "T4 sequence (looked up)": "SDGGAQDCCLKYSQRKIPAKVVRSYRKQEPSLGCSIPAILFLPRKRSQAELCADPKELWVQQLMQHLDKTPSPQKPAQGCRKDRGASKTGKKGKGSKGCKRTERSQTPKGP", "test": "ELISA, plate-bound chemokine (1 ug/ml), antibody 10 ug/ml, OD450", "description": "as §1", "values": [{"binder": "B1", "binding result": "no binding (tested: 10 ug/ml)"}, {"binder": "B2", "binding result": "no binding (tested: 10 ug/ml)"}, {"binder": "B3", "binding result": "no binding (tested: 10 ug/ml)"}, {"binder": "B4", "binding result": "no binding (tested: 10 ug/ml)"}]}, {"target": "T5, recombinant human CCL17 (human, UniProt Q92583 24-94)", "T5 construct": "also called TARC", "T5 sequence (looked up)": "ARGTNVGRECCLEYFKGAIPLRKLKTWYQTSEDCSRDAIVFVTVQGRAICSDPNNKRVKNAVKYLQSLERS", "test": "ELISA, plate-bound chemokine (1 ug/ml), antibody 10 ug/ml, OD450", "description": "as §1", "values": [{"binder": "B1", "binding result": "no binding (tested: 10 ug/ml)"}, {"binder": "B2", "binding result": "no binding (tested: 10 ug/ml)"}, {"binder": "B3", "binding result": "no binding (tested: 10 ug/ml)"}, {"binder": "B4", "binding result": "no binding (tested: 10 ug/ml)"}]}, {"target": "T6, recombinant human CCL5 (human, UniProt P13501 24-91)", "T6 construct": "also called Rantes", "T6 sequence (looked up)": "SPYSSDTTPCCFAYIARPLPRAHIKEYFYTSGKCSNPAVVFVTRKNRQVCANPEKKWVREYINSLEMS", "test": "ELISA, plate-bound chemokine (1 ug/ml), antibody 10 ug/ml, OD450", "description": "as §1", "values": [{"binder": "B1", "binding result": "no binding (tested: 10 ug/ml)"}, {"binder": "B2", "binding result": "no binding (tested: 10 ug/ml)"}, {"binder": "B3", "binding result": "no binding (tested: 10 ug/ml)"}, {"binder": "B4", "binding result": "no binding (tested: 10 ug/ml)"}]}, {"target": "T7, recombinant human CCL3 (human, UniProt P10147 27-92, limits assumed)", "T7 construct": "also called MIP-1a", "T7 sequence (looked up)": "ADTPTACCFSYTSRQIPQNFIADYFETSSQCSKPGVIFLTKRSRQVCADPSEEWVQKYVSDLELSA", "test": "ELISA, plate-bound chemokine (1 ug/ml), antibody 10 ug/ml, OD450", "description": "as §1", "values": [{"binder": "B1", "binding result": "no binding (tested: 10 ug/ml)"}, {"binder": "B2", "binding result": "no binding (tested: 10 ug/ml)"}, {"binder": "B3", "binding result": "no binding (tested: 10 ug/ml)"}, {"binder": "B4", "binding result": "no binding (tested: 10 ug/ml)"}]}, {"target": "T8, recombinant human CCL1 (human, UniProt P22362 24-96, limits assumed)", "T8 sequence (looked up)": "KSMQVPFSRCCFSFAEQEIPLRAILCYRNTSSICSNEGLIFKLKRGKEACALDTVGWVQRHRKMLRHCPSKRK", "test": "ELISA, plate-bound chemokine (1 ug/ml), antibody 10 ug/ml, OD450", "description": "as §1", "values": [{"binder": "B1", "binding result": "no binding (tested: 10 ug/ml)"}, {"binder": "B2", "binding result": "no binding (tested: 10 ug/ml)"}, {"binder": "B3", "binding result": "no binding (tested: 10 ug/ml)"}, {"binder": "B4", "binding result": "no binding (tested: 10 ug/ml)"}]}, {"target": "T9, recombinant human CXCL16 (human, UniProt Q9H2A7 30-118, limits assumed)", "T9 sequence (looked up)": "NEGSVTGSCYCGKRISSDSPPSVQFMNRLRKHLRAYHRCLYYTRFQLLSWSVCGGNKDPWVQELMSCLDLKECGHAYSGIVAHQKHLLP", "test": "ELISA, plate-bound chemokine (1 ug/ml), antibody 10 ug/ml, OD450", "description": "as §1", "values": [{"binder": "B1", "binding result": "no binding (tested: 10 ug/ml)"}, {"binder": "B2", "binding result": "no binding (tested: 10 ug/ml)"}, {"binder": "B3", "binding result": "no binding (tested: 10 ug/ml)"}, {"binder": "B4", "binding result": "no binding (tested: 10 ug/ml)"}]}, {"target": "T10, recombinant human CXCL10 (human, UniProt P02778 22-98)", "T10 construct": "also called IP-10", "T10 sequence (looked up)": "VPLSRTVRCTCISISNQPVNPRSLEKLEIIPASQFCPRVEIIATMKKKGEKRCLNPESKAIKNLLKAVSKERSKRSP", "test": "ELISA, plate-bound chemokine (1 ug/ml), antibody 10 ug/ml, OD450", "description": "as §1", "values": [{"binder": "B1", "binding result": "no binding (tested: 10 ug/ml)"}, {"binder": "B2", "binding result": "no binding (tested: 10 ug/ml)"}, {"binder": "B3", "binding result": "no binding (tested: 10 ug/ml)"}, {"binder": "B4", "binding result": "no binding (tested: 10 ug/ml)"}]}, {"target": "T11, recombinant human CXCL1 (human, UniProt P09341 35-107)", "T11 construct": "also called GROα", "T11 sequence (looked up)": "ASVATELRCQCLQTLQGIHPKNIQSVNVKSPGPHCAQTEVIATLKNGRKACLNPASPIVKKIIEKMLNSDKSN", "test": "ELISA, plate-bound chemokine (1 ug/ml), antibody 10 ug/ml, OD450", "description": "as §1", "values": [{"binder": "B1", "binding result": "no binding (tested: 10 ug/ml)"}, {"binder": "B2", "binding result": "no binding (tested: 10 ug/ml)"}, {"binder": "B3", "binding result": "no binding (tested: 10 ug/ml)"}, {"binder": "B4", "binding result": "no binding (tested: 10 ug/ml)"}]}, {"target": "T12, recombinant human CX3CL1 (Extracellular Domain) (human, UniProt P78423 25-341)", "T12 construct": "extracellular domain; also called FKN", "T12 sequence (looked up)": "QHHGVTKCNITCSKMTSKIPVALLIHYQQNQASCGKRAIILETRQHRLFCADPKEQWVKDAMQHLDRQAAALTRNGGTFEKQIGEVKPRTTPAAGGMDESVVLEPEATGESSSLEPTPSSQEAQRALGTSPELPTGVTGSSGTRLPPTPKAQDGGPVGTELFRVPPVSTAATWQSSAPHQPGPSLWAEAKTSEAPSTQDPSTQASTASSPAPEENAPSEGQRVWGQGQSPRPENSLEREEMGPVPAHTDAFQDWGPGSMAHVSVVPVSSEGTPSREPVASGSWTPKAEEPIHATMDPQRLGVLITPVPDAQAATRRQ", "test": "ELISA, plate-bound chemokine (1 ug/ml), antibody 10 ug/ml, OD450", "description": "as §1", "values": [{"binder": "B1", "binding result": "no binding (tested: 10 ug/ml)"}, {"binder": "B2", "binding result": "no binding (tested: 10 ug/ml)"}, {"binder": "B3", "binding result": "no binding (tested: 10 ug/ml)"}, {"binder": "B4", "binding result": "no binding (tested: 10 ug/ml)"}]}]}
